Reference: patent US20140274782A1, “AFFINITY REAGENTS AND METHODS FOR DETECTION, PURIFICATION, AND PROTEOMIC ANALYSIS OF METHYLATED PROTEINS” (The Board of Trustees of the Leland Stanford Junior …, priority 2013, published 2014)

Tests used:
3×MBT domain of L3MBTL1 = experiment: Triple SILAC pull-down, 3xMBT/3xMBTD355N ratio (cytoplasmic, nuclear and chromatin fractions of 293T cells); format: binding, human; conditions: SILAC ratio, pull-down 3xMBT vs 3xMBTD355N; for 3xMBT/D355N UNC Heavy: experiment with UNC0638 in heavy SILAC media; for 3xMBT/D355N UNC Light: experiment with UNC0638 in light SILAC media;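 as to all read-outs here: proteins quantified with MaxQuant, requiring at least two unique peptides and quantification in both label directions, normalized to the mean of proteins from a digested loading control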
G9a and GLP = target: T1, G9a and GLP (Homo sapiens, UniProt Q96KQ7+Q9H9B1); experiment: Triple SILAC pull-down after UNC0638 treatment of 293T cells, DMSO/UNC0638 ratio of protein captured by 3×MBT; format: cell-based; design: endogenous in cells; host or cells: HEK 293T; conditions: for Relative to UNC0638 UNC Heavy / Relative to UNC0638 UNC Light: SILAC ratio DMSO/UNC0638 of protein pulled down with 3xMBT; for Relative to UNC0638 UNC Heavy: UNC0638 in heavy SILAC media; for Relative to UNC0638 UNC Light: UNC0638 in light SILAC media; for Relative to UNC0638 Average: average of UNC Light and UNC Heavy experiments;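 as to all read-outs here: mass spectrometry (Q-Exactive) SILAC quantitation, DMSO/UNC0638 ratio computed after subtracting 3×MBTD355N mutant pull-down background, only proteins with at least twofold 3×MBT over mutant signal considered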
T1 sequence (Q96KQ7 2-1210 limits assumed): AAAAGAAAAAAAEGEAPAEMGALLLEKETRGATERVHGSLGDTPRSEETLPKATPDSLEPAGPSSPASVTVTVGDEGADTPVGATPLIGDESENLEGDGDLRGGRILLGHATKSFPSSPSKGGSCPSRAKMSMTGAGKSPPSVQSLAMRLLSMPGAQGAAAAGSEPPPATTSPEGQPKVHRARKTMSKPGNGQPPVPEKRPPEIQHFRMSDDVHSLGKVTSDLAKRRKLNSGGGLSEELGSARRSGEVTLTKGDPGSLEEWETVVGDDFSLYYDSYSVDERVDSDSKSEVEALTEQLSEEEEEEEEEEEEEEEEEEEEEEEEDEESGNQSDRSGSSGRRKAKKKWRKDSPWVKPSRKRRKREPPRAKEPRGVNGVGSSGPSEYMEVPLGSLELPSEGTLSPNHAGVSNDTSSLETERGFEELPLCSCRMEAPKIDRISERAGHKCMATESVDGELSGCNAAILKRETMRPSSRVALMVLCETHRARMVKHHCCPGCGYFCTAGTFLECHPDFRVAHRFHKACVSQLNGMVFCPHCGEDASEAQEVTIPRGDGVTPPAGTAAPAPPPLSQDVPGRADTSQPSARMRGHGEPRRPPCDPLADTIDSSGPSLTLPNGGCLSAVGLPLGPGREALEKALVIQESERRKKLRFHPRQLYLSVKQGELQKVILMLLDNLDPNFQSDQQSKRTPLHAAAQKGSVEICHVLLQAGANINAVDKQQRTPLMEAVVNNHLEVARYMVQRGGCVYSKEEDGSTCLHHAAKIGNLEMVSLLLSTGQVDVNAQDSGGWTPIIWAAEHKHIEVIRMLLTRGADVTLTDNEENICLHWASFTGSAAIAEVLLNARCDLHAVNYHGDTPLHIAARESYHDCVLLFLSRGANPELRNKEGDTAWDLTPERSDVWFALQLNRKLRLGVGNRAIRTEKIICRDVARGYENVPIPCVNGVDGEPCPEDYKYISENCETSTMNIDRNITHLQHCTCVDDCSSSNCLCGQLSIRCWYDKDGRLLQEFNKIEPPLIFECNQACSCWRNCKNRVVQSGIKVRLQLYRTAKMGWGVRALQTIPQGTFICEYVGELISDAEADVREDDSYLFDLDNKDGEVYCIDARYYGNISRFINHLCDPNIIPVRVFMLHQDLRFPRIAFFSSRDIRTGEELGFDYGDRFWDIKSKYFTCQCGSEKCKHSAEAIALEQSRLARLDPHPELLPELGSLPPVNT
T1 sequence (Q9H9B1 2-1298 limits assumed): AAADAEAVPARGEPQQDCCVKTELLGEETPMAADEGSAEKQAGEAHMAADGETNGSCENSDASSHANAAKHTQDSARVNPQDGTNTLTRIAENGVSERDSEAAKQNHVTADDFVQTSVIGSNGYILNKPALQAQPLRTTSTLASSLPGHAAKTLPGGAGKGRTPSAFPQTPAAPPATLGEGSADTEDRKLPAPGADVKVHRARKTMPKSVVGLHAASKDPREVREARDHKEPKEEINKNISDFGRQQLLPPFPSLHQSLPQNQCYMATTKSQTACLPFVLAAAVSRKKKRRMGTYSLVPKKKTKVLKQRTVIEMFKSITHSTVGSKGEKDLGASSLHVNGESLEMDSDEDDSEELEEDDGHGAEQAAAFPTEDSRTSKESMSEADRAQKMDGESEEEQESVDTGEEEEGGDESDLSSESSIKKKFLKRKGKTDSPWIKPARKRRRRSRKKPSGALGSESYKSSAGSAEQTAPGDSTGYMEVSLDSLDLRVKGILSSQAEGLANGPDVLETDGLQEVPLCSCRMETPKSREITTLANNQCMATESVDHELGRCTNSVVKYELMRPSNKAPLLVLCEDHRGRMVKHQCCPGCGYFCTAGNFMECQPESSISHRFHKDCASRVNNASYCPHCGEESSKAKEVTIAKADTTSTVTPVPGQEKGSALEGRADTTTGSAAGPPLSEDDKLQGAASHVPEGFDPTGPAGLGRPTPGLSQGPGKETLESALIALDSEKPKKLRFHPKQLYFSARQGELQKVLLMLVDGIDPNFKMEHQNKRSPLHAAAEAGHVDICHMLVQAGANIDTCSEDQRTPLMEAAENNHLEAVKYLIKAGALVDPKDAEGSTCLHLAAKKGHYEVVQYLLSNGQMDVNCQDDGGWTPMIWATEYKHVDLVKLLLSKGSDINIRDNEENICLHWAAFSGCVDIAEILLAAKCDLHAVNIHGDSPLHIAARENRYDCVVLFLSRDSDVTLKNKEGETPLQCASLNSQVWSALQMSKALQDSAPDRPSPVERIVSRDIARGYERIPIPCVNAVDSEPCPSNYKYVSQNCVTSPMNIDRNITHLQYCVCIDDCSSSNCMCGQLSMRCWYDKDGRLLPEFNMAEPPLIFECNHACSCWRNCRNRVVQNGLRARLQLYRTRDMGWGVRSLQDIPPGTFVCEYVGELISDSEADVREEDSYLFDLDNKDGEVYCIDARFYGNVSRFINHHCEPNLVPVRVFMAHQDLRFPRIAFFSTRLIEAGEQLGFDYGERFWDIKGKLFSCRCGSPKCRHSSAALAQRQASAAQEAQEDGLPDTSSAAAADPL

B1: SYNCRIP (protein, UniProt O60506 2-623, looked up)
Heterogeneous nuclear …: ATEHVNGNGTEEPMDTTSAVIHSENFQTLLDAGLPQKVAEKLDEIYVAGLVAHSDLDERAIEALKEFNEDGALAVLQQFKDSDLSHVQNKSAFLCGVMKTYRQREKQGTKVADSSKGPDEAKIKALLERTGYTLDVTTGQRKYGGPPPDSVYSGQQPSVGTEIFVGKIPRDLFEDELVPLFEKAGPIWDLRLMMDPLTGLNRGYAFVTFCTKEAAQEAVKLYNNHEIRSGKHIGVCISVANNRLFVGSIPKSKTKEQILEEFSKVTEGLTDVILYHQPDDKKKNRGFCFLEYEDHKTAAQARRRLMSGKVKVWGNVGTVEWADPIEDPDPEVMAKVKVLFVRNLANTVTEEILEKAFSQFGKLERVKKLKDYAFIHFDERDGAVKAMEEMNGKDLEGENIEIVFAKPPDQKRKERKAQRQAAKNQMYDDYYYYGPPHMPPPTRGRGRGGRGGYGYPPDYYGYEDYYDYYGYDYHNYRGGYEDPYYGYEDFQVGARGRGGRGARGAAPSRGRGAAPPRGRAGYSQRGGPGSARGVRGARGGAQQQRGRGVRGARGGRGGNVGGKRKADGYNQPDSKRRQTNNQNWGSQPIAQQPLQGGDHSGNYGYKSENQEFYQDTFGQQWK
- 3xMBT/D355N UNC Heavy (3×MBT domain of L3MBTL1): 2.28 log base 2
- 3xMBT/D355N UNC Light (3×MBT domain of L3MBTL1): 3.48 log base 2
- Relative to UNC0638 UNC Heavy (G9a and GLP): 0.14 log base 2
- Relative to UNC0638 UNC Light (G9a and GLP): 0.17 log base 2
- Relative to UNC0638 Average (G9a and GLP): 0.15 log base 2

B2: API5 (protein, UniProt Q9BZZ5 2-524, looked up)
Apoptosis inhibitor 5: PTVEELYRNYGILADATEQVGQHKDAYQVILDGVKGGTKEKRLAAQFIPKFFKHFPELADSAINAQLDLCEDEDVSIRRQAIKELPQFATGENLPRVADILTQLLQTDDSAEFNLVNNALLSIFKMDAKGTLGGLFSQILQGEDIVRERAIKFLSTKLKTLPDEVLTKEVEELILTESKKVLEDVTGEEFVLFMKILSGLKSLQTVSGRQQLVELVAEQADLEQTFNPSDPDCVDRLLQCTRQAVPLFSKNVHSTRFVTYFCEQVLPNLGTLTTPVEGLDIQLEVLKLLAEMSSFCGDMEKLETNLRKLFDKLLEYMPLPPEEAENGENAGNEEPKLQFSYVECLLYSFHQLGRKLPDFLTAKLNAEKLKDFKIRLQYFARGLQVYIRQLRLALQGKTGEALKTEENKIKVVALKITNNINVLIKDLFHIPPSYKSTVTLSWKPVQKVEIGQKRASEDTTSGSPPKKSSAGPKRDARQIYNPPSGKYSSNLGNFNYEQRGAFRGSRGGRGWGTRGNRSRGRLY
- 3xMBT/D355N UNC Heavy (3×MBT domain of L3MBTL1): 3.54 log base 2
- 3xMBT/D355N UNC Light (3×MBT domain of L3MBTL1): 2.67 log base 2
- Relative to UNC0638 UNC Heavy (G9a and GLP): 1.12 log base 2
- Relative to UNC0638 UNC Light (G9a and GLP): 0.31 log base 2
- Relative to UNC0638 Average (G9a and GLP): 0.71 log base 2
- Candidate G9a/GLP target (G9a and GLP; reduced association with 3xMBT after UNC0638 treatment): ✓

B3: CPSF1 (protein, UniProt Q10570 1-1443, looked up)
Cleavage and polyadenylation …: MYAVYKQAHPPTGLEFSMYCNFFNNSERNLVVAGTSQLYVYRLNRDAEALTKNDRSTEGKAHREKLELAASFSFFGNVMSMASVQLAGAKRDALLLSFKDAKLSVVEYDPGTHDLKTLSLHYFEEPELRDGFVQNVHTPRVRVDPDGRCAAMLVYGTRLVVLPFRRESLAEEHEGLVGEGQRSSFLPSYIIDVRALDEKLLNIIDLQFLHGYYEPTLLILFEPNQTWPGRVAVRQDTCSIVAISLNITQKVHPVIWSLTSLPFDCTQALAVPKPIGGVVVFAVNSLLYLNQSVPPYGVALNSLTTGTTAFPLRTQEGVRITLDCAQATFISYDKMVISLKGGEIYVLTLITDGMRSVRAFHFDKAAASVLTTSMVTMEPGYLFLGSRLGNSLLLKYTEKLQEPPASAVREAADKEEPPSKKKRVDATAGWSAAGKSVPQDEVDEIEVYGSEAQSGTQLATYSFEVCDSILNIGPCANAAVGEPAFLSEEFQNSPEPDLEIVVCSGHGKNGALSVLQKSIRPQVVTTFELPGCYDMWTVIAPVRKEEEDNPKGEGTEQEPSTTPEADDDGRRHGFLILSREDSTMILQTGQEIMELDTSGFATQGPTVFAGNIGDNRYIVQVSPLGIRLLEGVNQLHFIPVDLGAPIVQCAVADPYVVIMSAEGHVTMFLLKSDSYGGRHHRLALHKPPLHHQSKVITLCLYRDLSGMFTTESRLGGARDELGGRSGPEAEGLGSETSPTVDDEEEMLYGDSGSLFSPSKEEARRSSQPPADRDPAPFRAEPTHWCLLVRENGTMEIYQLPDWRLVFLVKNFPVGQRVLVDSSFGQPTTQGEARREEATRQGELPLVKEVLLVALGSRQSRPYLLVHVDQELLIYEAFPHDSQLGQGNLKVRFKKVPHNINFREKKPKPSKKKAEGGGAEEGAGARGRVARFRYFEDIYGYSGVFICGPSPHWLLVTGRGALRLHPMAIDGPVDSFAPFHNVNCPRGFLYFNRQGELRISVLPAYLSYDAPWPVRKIPLRCTAHYVAYHVESKVYAVATSTNTPCARIPRMTGEEKEFETIERDERYIHPQQEAFSIQLISPVSWEAIPNARIELQEWEHVTCMKTVSLRSEETVSGLKGYVAAGTCLMQGEEVTCRGRILIMDVIEVVPEPGQPLTKNKFKVLYEKEQKGPVTALCHCNGHLVSAIGQKIFLWSLRASELTGMAFIDTQLYIHQMISVKNFILAADVMKSISLLRYQEESKTLSLVSRDAKPLEVYSVDFMVDNAQLGFLVSDRDRNLMVYMYLPEAKESFGGMRLLRRADFHVGAHVNTFWRTPCRGATEGLSKKSVVWENKHITWFATLDGGIGLLLPMQEKTYRRLLMLQNALTTMLPHHAGLNPRAFRMLHVDRRTLQNAVRNVLDGELLNRYLYLSTMERSELAKKIGTTPDIILDDLLETDRVTAHF
- 3xMBT/D355N UNC Heavy (3×MBT domain of L3MBTL1): 2.44 log base 2
- 3xMBT/D355N UNC Light (3×MBT domain of L3MBTL1): 3.15 log base 2
- Relative to UNC0638 UNC Heavy (G9a and GLP): 0.17 log base 2
- Relative to UNC0638 UNC Light (G9a and GLP): 0.15 log base 2
- Relative to UNC0638 Average (G9a and GLP): 0.16 log base 2
